The record followed here is article PMC4011729, “Inhibiting Heat Shock Factor 1 in Human Cancer Cells with a Potent RNA Aptamer”.

The target in data set [1] is HSF1 (Homo sapiens, UniProt Q00613 1-529). The data set is described as follows: EMSA; apparent Kd, n = 5; 1 nM RNA; EMSA: 1X binding buffer (composition not given), 1 µg yeast RNA, 4 µg BSA, 5 mM DTT, 10% glycerol, 6 U SUPERase-In in 10 µl; room temperature 30 min then 4 C 10 min; 6-9% native gel, 1/4 TBE, 1 mM MgCl2, 4 C; pH not stated. To be noted: protein: recombinant; tags: His; label: internal 32P-UTP; two aptamer units, 5' and 3' ends protected. For orientation: In EMSA bound probe runs differently from free probe, usually more slowly.
HSF1, sequence (Q00613 whole entry): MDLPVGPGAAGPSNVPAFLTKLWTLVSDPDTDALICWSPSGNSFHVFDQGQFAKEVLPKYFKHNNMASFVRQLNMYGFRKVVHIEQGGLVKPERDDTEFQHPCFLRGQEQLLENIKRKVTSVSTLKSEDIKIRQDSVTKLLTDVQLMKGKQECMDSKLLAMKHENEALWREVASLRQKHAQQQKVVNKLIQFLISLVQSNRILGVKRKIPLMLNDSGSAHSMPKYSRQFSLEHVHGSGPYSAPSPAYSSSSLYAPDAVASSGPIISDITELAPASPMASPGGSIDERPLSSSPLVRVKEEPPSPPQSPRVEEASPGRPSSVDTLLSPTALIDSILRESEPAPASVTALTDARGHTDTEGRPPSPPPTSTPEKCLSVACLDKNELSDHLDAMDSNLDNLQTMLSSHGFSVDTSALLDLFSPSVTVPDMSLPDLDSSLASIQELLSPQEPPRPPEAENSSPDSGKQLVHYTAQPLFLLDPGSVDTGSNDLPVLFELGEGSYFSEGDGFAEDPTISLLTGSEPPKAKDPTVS

Data set [2] deals with HSF2 (Homo sapiens, UniProt Q03933 1-536). The data set is described as follows: EMSA; apparent affinity from % shifted complex; 1 nM RNA; EMSA: 1X binding buffer (composition not given), 1 µg yeast RNA, 4 µg BSA, 5 mM DTT, 10% glycerol, 6 U SUPERase-In in 10 µl; room temperature 30 min then 4 C 10 min; 6-9% native gel, 1/4 TBE, 1 mM MgCl2, 4 C; pH not stated. To be noted: protein: recombinant; tags: His; label: internal 32P-UTP; two aptamer units, 5' and 3' ends protected.
HSF2, sequence (Q03933 whole entry): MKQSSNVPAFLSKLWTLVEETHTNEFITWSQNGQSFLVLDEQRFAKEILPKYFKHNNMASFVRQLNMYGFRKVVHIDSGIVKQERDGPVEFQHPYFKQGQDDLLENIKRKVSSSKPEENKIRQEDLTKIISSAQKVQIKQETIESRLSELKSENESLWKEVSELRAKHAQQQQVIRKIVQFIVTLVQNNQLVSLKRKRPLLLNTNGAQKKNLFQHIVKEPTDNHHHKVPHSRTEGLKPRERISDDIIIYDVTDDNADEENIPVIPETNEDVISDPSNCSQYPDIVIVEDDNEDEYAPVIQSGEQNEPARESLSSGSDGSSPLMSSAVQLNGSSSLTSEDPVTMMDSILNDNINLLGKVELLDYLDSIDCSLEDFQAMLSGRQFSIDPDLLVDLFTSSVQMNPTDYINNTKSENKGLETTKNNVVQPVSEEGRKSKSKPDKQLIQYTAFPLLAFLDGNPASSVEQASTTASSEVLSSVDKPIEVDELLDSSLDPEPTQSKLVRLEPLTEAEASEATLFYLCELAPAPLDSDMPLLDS

B1: iaRNAHSF1 (structured_RNA)
RNA: GUCGAGUGACGUUGGCAUCGCGAUACAAAAUUAAGUUGAACGCGAGUUCUUCGGAAUUCAACUGCCUUCGUCAUACUCCUUGAAUUCAACUGCCUUCGGGCAUCGCGAUACAAAAUUAAGUUGAACGCGAGUUCUUGGAGGCUCGACGUCUAGCGAUGUGGUUUCGCUACUGAUGAGUCCGUGAGGACGAAAC
Regarding B1, the Kd in data set [1] was roughly 25 nM; in data set [2], roughly 141 nM.
